Experiments:
PD-1 = target: T1, PD-1; experiment: bio-layer interferometry (BLI)
T1 construct: the paragraph before it speaks of human and cynomolgus PD-1; also called programmed cell death protein 1; CD279

cynomologous monkey PD-1 = target: T2, cynomologous monkey PD-1 (cynomologous monkey, UniProt B0LAJ3 25-170); experiment: method not stated in that sentence (BLI in the next one), 25° C
T2 construct: also called cynomolgus PD-1

human PD-1 = target: T3, human PD-1 (human, UniProt Q15116 25-167, limits assumed); experiment: method not stated in that sentence (BLI in the next one), 25° C; 25° C; human PD-1
T3 construct: also called programmed cell death protein 1; CD279
T3 sequence (Q15116 25-167 limits assumed): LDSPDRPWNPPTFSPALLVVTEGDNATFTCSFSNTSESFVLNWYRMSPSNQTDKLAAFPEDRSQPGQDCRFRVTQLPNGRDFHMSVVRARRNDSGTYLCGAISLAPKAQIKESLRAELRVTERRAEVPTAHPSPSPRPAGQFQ

T1 sequence (Q15116 25-170): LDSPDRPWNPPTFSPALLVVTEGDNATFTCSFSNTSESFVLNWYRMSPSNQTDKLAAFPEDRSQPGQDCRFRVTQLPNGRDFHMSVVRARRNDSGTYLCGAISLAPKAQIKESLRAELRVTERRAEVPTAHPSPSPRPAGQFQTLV
T2 sequence (B0LAJ3 entry or part of it limits assumed): as the sequence (Q15116 25-170) above, with D2E, P10A, V19L, T35A, Q75R, T144A counted along it

Kd (PD-1): < 1 pM | Kd (cynomologous monkey PD-1): ≤ 10 pM | Kd (human PD-1): ≤ 10 pM
B1: AM0001 (antibody, human IgG4 S228P, lambda, V domains shown)
VH: EVQLLESGGGLVQPGGSLRLSCPASGFTFSSYAMSWVRQAPGKGLGWVSDISGGGGTTYYADSVKGRFTISRDNSKNTLYLQMNSLRGEDTAVYYCAKSGTVVTDFDYWGQGTLVTVSS
VL: SYVLTQPPSVSVAPGQTARVTCGGNSIGSYSVHWYQQKPGQAPVLVVYDDSDRPSGIPERFSGSNSGNTAALTISRVEAGDEADYYCQVWDTSSYWVFGGGTKLTVLG
notes: Monoclonal antibody with a lambda 2 light chain and a hinge-stabilized IgG4 (S228P) heavy chain; also called PD1-antagonist antibody AM0001; VH-09/VL-09

Source: patent US20200353050A1 (Eli Lilly, published 2020)
